Assay results from US20250000944A1, “USE OF RECOMBINANT CALRETICULIN IN HAIR GROWTH, HAIR BREEDING, HAIR PROTECTION OR ANTI-HAIR LOSS AND RELATED PRODUCT” (BEIJING YITUBAIHUI BIOTECH CO., LTD, priority 2021, published 2025).
“Also recorded” adds a separate entry of the source.

What was measured:
[1] = test system: androgenic alopecia model; assay: First experiment: testosterone-induced androgenic alopecia model, hair observed by dermatoscope and scanning electron microscopy; assay type: in vivo, C57BL/6 male mice
Protocol: Experimental animals: C57BL/6 male mice, 6-7 weeks old, weighing (20±2) g, were provided by Beijing Vital River Laboratory Animal Technology Co. Ltd., with the animal license number of SCXK (Beijing) 2021-0006. They were kept in a 12 h light/12 h dark environment, with free access to food and water. The mice were divided into normal NC group (NC), model group (Model), positive control-minoxidil group (Minoxidil), positive control-finasteride group (Finasteride), experimental group A and experimental group B. The proteins were stored in a −70° C. refrigerator and diluted with physiological saline when used. Experimental group A used rh-CRT-1, with a concentration of 0.21 mg/ml. Experimental group B used rh-CRT-2, with a concentration of 0.21 mg/ml. There were 6 mice in each group.
The main reagents used are as follows: 4% paraformaldehyde (Beijing Solarbio Technology Co., Ltd., China), isoflurane (Rayward, China), testosterone (Shanghai Standard Biotechnology Co., Ltd., China), paraffin sectioner (Thermo, USA), small animal anesthesia machine (Rayward, China), and inverted microscope (Olympus, Japan).
Modeling and drug administration: First, the androgenic alopecia model was established. One day before the modeling, the hair in the central part of the back of the experimental animal was removed with a skin preparation knife, and the prepared area was depilated with a depilatory cream. After 24 hours of depilation, the modeling agent (testosterone, 5.0 mg/mL) was subcutaneously injected into the neck of the mice in groups except the NC group, with a total dose of 0.2 mL/mouse. The mice in the NC group were injected with an equal amount of normal saline. After modeling, the mice were administrated with drugs. The NC group was injected with normal saline once a day, 0.15 mL/mouse each time. The experimental group A, experimental group B and positive control group were injected with modeling agent (testosterone), and administrated with drugs after 2 hours, and the dose of modeling agent was 0.2 mL/mouse. The experimental group A and experimental group B were injected on the back once a day, 0.15 mL/mouse each time. The positive control minoxidil group was applied 5% minoxidil externally, 0.01 mL/mouse, once a day. The positive control finasteride group was applied finasteride at a concentration of 13 μg/mL, 0.2 mL/mouse, once a day.

[2] = test system: mice with androgenic alopecia; assay: Second experiment: testosterone hair loss model, hair growth, skin blackness, scanning electron microscopy and hair follicle count; assay type: in vivo, C57BL/6 male mice; conditions: for hair growth on the back skin: 17th day, 0.15 mL/mouse once a day; for growth stage and quantity of back hair under dermoscope: end of experiment
Protocol: Experimental animals: C57BL/6 male mice, 6-7 weeks old, weighing (20±2) g, were provided by Beijing Vital River Laboratory Animal Technology Co. Ltd., with the animal license number of SCXK (Beijing) 2021-0006. They were kept in a 12 h light/12 h dark environment, with free access to food and water. The mice were divided into normal control group (normal group, NC), model group (Model), experimental group C (rh-CRT-2, with a concentration of 0.35 mg/ml) including an injection group and an external application group, experimental group D (rh-CRT-3, with a concentration of 0.21 mg/ml) including an injection group and external application group, and positive control-minoxidil group (Minoxidil). The proteins were stored in a −70° C. refrigerator and diluted with physiological saline when used. There were 6 mice in each group.
Modeling and drug administration: First, the hair loss model was established. One day before the modeling, the hair in the center of the back of the experimental animal was removed with a skin preparation knife, and the prepared skin area was depilated with a depilatory cream. After 24 hours of depilation, the normal control group was given 75% ethanol, and other groups were injected with testosterone solution (5 mg/mL) prepared with 75% ethanol, 0.01 mL/mouse. Two hours later, the injection groups of experimental group C and experimental group D were injected on the back, 0.15 mL/mouse, once a day, for 17 consecutive days; the external application groups of experimental group C and experimental group D were applied on the back, 0.15 mL/mouse, once a day, for 17 consecutive days. The normal control group and the model group were externally applied with physiological saline, once a day, 0.15 mL/mouse, for 17 consecutive days. During the drug administration process, except for the normal control group, all other groups were injected with the modeling agent (testosterone), and administrated with drugs after 2 hours. […] After the experiment, the mouse skin was pathologically sectioned as follows: The skin pathological tissue was fixed in 4% paraformaldehyde, trimmed, dehydrated and transparent, and then embedded. The slices were cut with a thickness of 6 μm using a paraffin slicer, and further dewaxed, stained, dehydrated, transparent and sealed. The hair follicles in different areas were observed under an optical microscope, and the number of hair follicles was statistically analyzed.
Scanning electron microscopy observation: At the end of the experiment, hair shafts were randomly plucked from the newly formed hair area on the back of each group of mice. Three mice were selected from each group. The plucked hair shafts were fixed and the changes of hair shafts and hair cuticles were observed by scanning electron microscopy.
Statistical analysis: All data were processed using SPSS 17.0 software. One-way ANOVA was used for comparisons among multiple groups. Data were expressed as mean±standard deviation (x±s). P<0.05 was considered statistically significant, and P>0.05 was not considered statistically significant.

[3] = external application group, compared with the model group

B1: CRT-2: fragment (1-349 aa) of recombinantly expressed CRT, amino acid sequence SEQ ID NO: 9 (protein)
chain: EPAVYFKEQFLDGDGWTSRWIESKHKSDFGKFVLSSGKFYGDEEKDKGLQTSQDARFYALSASFEPFSNKGQTLVVQFTVKHEQNIDCGGGYVKLFPNSLDQTDMHGDSEYNIMFGPDICGPGTKKVHVIFNYKGKNVLINKDIRCKDDEFTHLYTLIVRPDNTYEVKIDNSQVESGSLEDDWDFLPPKKIKDPDASKPEDWDERAKIDDPTDSKPEDWDKPEHIPDPDAKKPEDWDEEMDGEWEPPVIQNPEYKGEWKPRQIDNPDYKGTWIHPEIDNPEYSPDPSIYAYDNFGVLGLDLWQVKSGTIFDNFLITNDEAYAEEFGNETWGVTKAAEKQMKDKQDEEQR
- changes in hair observed by dermatoscope ([1]; 21 days, compared with the model group (frizzy hair), proteins 0.21 mg/ml injected on the back once a day, minoxidil 5% external, finasteride 13 μg/mL): smoother
- hair cuticles observed by scanning electron microscopy ([1]; 21 days, proteins 0.21 mg/ml injected on the back once a day, minoxidil 5% external, finasteride 13 μg/mL, listed as experimental group B): arranged neatly; also recorded: denser than those of group A
- hair shafts (scanning electron microscopy, FIG. 18 vs FIG. 19) ([1]; first experiment, comparison of experimental groups B and A): thicker than those of experimental group A
- hair growth on the back skin ([2]; external application group): promoted hair growth the most
- hair growth on the back skin ([2]; injection group): promoted hair growth
- blackness of the back skin (color tester) ([2]; Day 14, external application group, compared with the model group, P<0.05): significantly increased
- blackness of the back skin (color tester) ([2]; Day 17, external application group, compared with the model group, P<0.01): significantly increased
- blackness of the back skin (color tester) ([2]; Day 17, injection group, compared with the model group, P<0.01): significantly increased
- growth stage and quantity of back hair under dermoscope [2, 3]: increased number and became thicker
- growth stage and quantity of back hair under dermoscope ([2]; injection group, compared with the model group): less and fine
- hair cuticles under scanning electron microscopy [2, 3]: dense
- hair shafts under scanning electron microscopy [2, 3]: became significantly thicker
- number of hair follicles (pathological section) ([2]; external application group, compared with the model group, P<0.01): most significant effect
- hair cuticles under scanning electron microscopy ([2]; injection group): dense
- hair shafts under scanning electron microscopy ([2]; injection group): thin
- number of hair follicles (pathological section) ([2]; injection group, compared with the model group, P<0.01): significantly promoted
